# Reference: patent publication USRE49280 (University of Texas, dated 2022)
# Target: T1, TGF-β2 K25R I92V K94R (UniProt P61812 303-414, K25R; I92V; K94R)
# T1 construct: mature; Immobilised on the SPR sensor surface
# T1 sequence (looked up): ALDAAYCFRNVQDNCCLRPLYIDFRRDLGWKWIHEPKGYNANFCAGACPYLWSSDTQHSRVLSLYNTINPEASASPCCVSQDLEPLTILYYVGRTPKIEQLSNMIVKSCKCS
# Experiment: SPR, receptor injected over immobilised TGF-β2 K25R I92V K94R
binder,measurement,value
"TGF-β type III receptor endoglin-like domain (receptor, also called TβRIIIE; BGE) GPEPSTRCELSPINASHPVQALMESFTVLSGCASRGTTGLPREVHVLNLRSTDQGPGQRQREVTLHLNPIASVHTHHKPIVFLLNSPQPLVWHLKTERLAAGVPRLFLVSEGSVVQFPSGNFSLTAETEERNFPQENEHLLRWAQKEYGAVTSFTELKIARNIYIKVGEDQVFPPTCNIGKNFLSLNYLAEYLQPKAAEGCVLPSQPHEKEVHIIELITPSSNPYSAFQVDIIVDIRPAQEDPEVVKNLVLILKCKKSVNWVIKSFDVKGNLKVIAPNSIGFGKESERSMTMTKLVRDDIPSTQENLMKWALDNGYRPVTSYTMAPVANRFHLRLENNEEMRDEEVHTIPPELRILLDPD",maximal mass-normalized response relative to that for TβRII,~0.5 fold of TβRII
